Target: MaMADS36 (Musa spp. (banana), UniProt A0ACE1XRG1 54-288)
Test: EMSA; Not given in material; EMSA according to Liu et al. [22]
Conditions: protein: recombinant; chain copies: 2

MaMADS36, sequence (A0ACE1XRG1 entry or part of it): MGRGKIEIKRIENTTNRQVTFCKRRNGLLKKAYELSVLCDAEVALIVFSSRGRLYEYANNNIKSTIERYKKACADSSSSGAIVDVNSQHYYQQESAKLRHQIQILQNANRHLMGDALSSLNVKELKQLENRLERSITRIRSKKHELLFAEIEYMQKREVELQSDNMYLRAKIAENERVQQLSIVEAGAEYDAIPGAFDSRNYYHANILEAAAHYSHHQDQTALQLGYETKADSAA

B1: MaACS7 promoter C(A/T)rG probe (dsDNA)
DNA 1: GTTTCTTTTTTGGT
DNA 2: ACCAAAAAAGAAAC
- binding result: binds

Source: article PMC11878764, “MaEIL4-MaMADS36-MaACS7 module transcriptionally regulates ethylene biosynthesis during banana fruit ripening”
